Data reported in publication PMC6056640, “Ghrelin Through GHSR1a and OX1R Heterodimers Reveals a Gαs–cAMP-cAMP Response Element Binding Protein Signaling Pathway in Vitro” (Frontiers in Molecular Neuroscience, 2018).

Molecular target: T1, OX1R-Rluc (human, UniProt O43613 1-425)
T1 construct: Orexin type 1 receptor (OX1R), human cDNA (pcDNA3.1-OX1R, cDNA Resource Centre); construct made 'as described'; BRET donor; also called orexin type 1 receptor; Orexin 1 receptor; source: HEK293, transiently transfected, in living cells; not shown: Rluc, C-terminal, kept
T1 sequence (looked up): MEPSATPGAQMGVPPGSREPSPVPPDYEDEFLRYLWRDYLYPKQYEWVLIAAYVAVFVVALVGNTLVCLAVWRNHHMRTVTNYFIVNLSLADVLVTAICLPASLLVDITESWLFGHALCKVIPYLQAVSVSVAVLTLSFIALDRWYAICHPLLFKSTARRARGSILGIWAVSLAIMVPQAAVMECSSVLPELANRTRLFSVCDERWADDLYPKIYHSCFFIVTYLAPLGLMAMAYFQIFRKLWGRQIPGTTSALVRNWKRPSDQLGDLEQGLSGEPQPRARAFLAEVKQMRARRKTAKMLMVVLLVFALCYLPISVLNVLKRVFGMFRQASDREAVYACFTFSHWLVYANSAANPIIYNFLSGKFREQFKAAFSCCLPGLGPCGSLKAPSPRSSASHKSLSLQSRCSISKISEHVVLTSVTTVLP
Assay: FRET or BRET; BRET in living HEK293 cells; donor (Rluc fusion) and acceptor (EYFP fusion) plasmids 1:3; coelenterazine h 5 μM; also after ghrelin (100 nM) and/or orexin-A (100 nM) or vehicle for 10 min
Conditions: partners not purified

- mBRET ratio: 190
B1: GHSR1a-EYFP (receptor, UniProt Q92847 1-366, looked up)
chain: MWNATPSEEPGFNLTLADLDWDASPGNDSLGDELLQLFPAPLLAGVTATCVALFVVGIAGNLLTMLVVSRFRELRTTTNLYLSSMAFSDLLIFLCMPLDLVRLWQYRPWNFGDLLCKLFQFVSESCTYATVLTITALSVERYFAICFPLRAKVVVTKGRVKLVIFVIWAVAFCSAGPIFVLVGVEHENGTDPWDTNECRPTEFAVRSGLLTVMVWVSSIFFFLPVFCLTVLYSLIGRKLWRRRRGDAVVGASLRDQNHKQTVKMLAVVVFAFILCWLPFHVGRYLFSKSFEPGSLEIAQISQYCNLVSFVLFYLSAAINPILYNIMSKKYRVAVFRLLGFEPFSQRKLSTLKDESSRAWTESSINT
notes: Growth hormone secretagogue receptor 1α (GHSR1a); ORF inserted into the EYFP-N1 vector; cDNA from pcDNA3.1-GHSR1a (cDNA Resource Centre); BRET and FRET acceptor; The FRET methods call it EYFP-GHSR1a, but the construction paragraph puts EYFP on the C-terminus; also called growth hormone secretagogue receptor 1α; EYFP-GHSR1a; source: HEK293, transiently transfected, in living cells; not shown: …
